Measured values taken from patent publication US20130245385A1.

Target: sHLA-A2 (soluble class I HLA-A2) (human)
Assay: 65 ml class I HLA SHARC, 24.4 mg W6/32 at 97 µg/ml in PBS

antibody recovered in the elution: 8 mg
antibody that passed through the column: 11.7 mg
Substance: W6/32 pan class I HLA monoclonal antibody
